Measured values: publication PMC3155532

Tests used:
Conditions in all cases: remark: other sources report otherwise
[1] = molecular target: 3xflag-LRRK2 (leucine rich repeat kinase 2), wild type (UniProt Q5S007); assay: native gel or EMSA; native PAGE of 3xflag-LRRK2 purified from lysates treated with GDP, GTPγS or GMPPCP (10, 100 and 500 µM, 30 minutes at 30°C); silver stain and flag-M2 immunoblot
[2] = molecular target: 3xflag-LRRK2 (leucine rich repeat kinase 2), wild type (UniProt Q5S007); assay: SEC; cleared HEK293T cell lysates expressing 3xflag-LRRK2, Superose 6 10/300 GL, 4°C, SEC running buffer (25 mM Tris pH 7.4, 150 mM NaCl, 5 mM MgCl2, 0.02% Triton, 1 mM DTT) with 10 µM GDP or GTPγS; fractions read by flag-M2 dot blot
[3] = molecular target: 3xflag-LRRK2 (leucine rich repeat kinase 2), wild type (UniProt Q5S007); assay: SEC; purified 3xflag-LRRK2 (flag-M2 beads, eluted with 3xflag peptide), Superose 6 10/300 GL, 4°C, SEC running buffer with 10 µM GDP or GTPγS; fractions read by flag-M2 dot blot; higher molecular weight peaks also seen

Measured: stoichiometry N

3xflag-LRRK2 (leucine rich repeat kinase 2), wild type, Q5S007 1-2527
2: all assays above
